The experiment deals with CD1d(endogenous lipid)-β2M complex, as crystallized with VHH1D17 (Homo sapiens, UniProt P15813;P61769).

B1: VHH1D5 (VHH)
VHH: EVQLVESGGGLVQAGGSLRLSCAASGSSFSSYTMGWFRQAPGKEREIVAGIRWSDESPIYADSVKGRFTISRDNAKNTLYLQMNSLKPEDTAVYYCAARLVPPGIPIPRTSESMRYWGKGTLVTVSS
Take B1: the binding result is “binds”.

These data come from PMC10693867 (Journal for Immunotherapy of Cancer, 2023).
